From US20070243184A1, “PROPHYLAXIS AND TREATMENT OF ENTEROCOLITIS ASSOCIATED WITH ANTI-CTLA-4 ANTIBODY THERAPY” (priority 2005, published 2007)

Legend:
[1] = including hypothalamic-pituitary suppression; cited from earlier work
patients [2] = test: Adverse events in patients treated with MDX-010 in clinical protocols; format: in vivo
Description: As noted above, these adverse events are an expected consequence of inhibiting CTLA-4 function. Immune-mediated events are adverse events associated with drug exposure and consistent with an immune-based mechanism of action. In terms of organ system involvement, these events have primarily involved the GI tract (diarrhea and colitis) or the skin (rash and pruritis). Diarrhea due to treatment with MDX-010 ranges from mild to very severe and may become life-threatening. Most cases of diarrhea and colitis have resolved with symptomatic treatment or corticosteroid intervention without known sequelae. Upper GI tract involvement including ileitis, duodenitis, and esophagitis has been observed.
To date, 6 patients in total have experienced gastrointestinal perforation or bleeding requiring colectomy following treatment with MDX-010. Two of these patients had melanoma (representing 0.6% of all patients with melanoma enrolled in MDX-010 related protocols), while four patients had renal cell carcinoma (representing 7% of all patients with renal cell carcinoma enrolled in MDX-010 related protocols). One of the patients with melanoma also received concomitant dacarbazine. After developing diarrhea, they initially appeared to improve on intravenous steroids, but their symptoms worsened after they were tapered off the steroids, and stool cultures were positive for Clostridium difficile, requiring aggressive medical treatment. The patient also developed laboratory evidence of disseminated intravascular coagulopathy (DIC), and required plasma and platelet transfusions. […] The patient's post-operative course was complicated by depression and malnutrition without evidence of systemic vasculitis. The patient developed pneumonia and subsequently died.
In the renal study (MDX010-011), one patient had GI bleeding, which was treated with a colectomy. The bleeding developed after a single dose of MDX-010. The other 3 events in the MDX010-011 study occurred after the patients received 4 to 6 doses of MDX-010. One patient with a bowel perforation was successfully treated with a colectomy and an ostomy. Subsequently, the bowel was re-functionalized. The patient was taken off steroids and has maintained a partial response to their malignancy. […] The diagnosis of colitis was only made on autopsy. The third patient with a bowel perforation continued to have diarrhea and was intermittently treated with steroids. Upon the diagnosis of a non-catastrophic perforation, the patient declined surgical intervention based on the overall progression of disease. The patient opted for hospice care and ultimately died. The fourth patient developed symptoms of colitis after a single dose of MDX-010, had only intermittent steroid treatment, and ultimately underwent a colectomy for uncontrolled bleeding. Of the 3 patients who received steroid therapy, the initiation of steroid therapy was delayed due to poor patient reporting of symptoms to the investigator, and the therapy was compromised by patient non-compliance with the recommended treatment.
The overall incidence of gastrointestinal perforations and/or colectomies is less than 2% of patients.
Skin toxicity in patients receiving MDX-010 has manifested as rash and pruritis, and, when biopsied, pleomorphic infiltrates have been noted in the skin. Some patients have developed vitiligo associated with MDX-010 administration. In our studies, there have been 7 cases of hypopituitarism reported to date, presumably due to immune-mediated hypophysitis. […] The effect of high-dose corticosteroid therapy on reversing pituitary abnormalities is unknown. Ocular inflammation, specifically Grade 2 or Grade 3 episcleritis or uveitis, has been reported in 6 patients; it has occurred in conjunction with GI symptoms in 4 of these patients. In addition, primary adrenal insufficiency has been noted in 3 patients. […]

patients [3] = test: Clinical (antitumor) response in patients treated with MDX-010; format: in vivo, human
Description: These adverse events, likely reflect a loss of tolerance to some self antigens, or a hyper-response to bacterial antigens present in the gut or skin, and are therefore mechanism-related and may be directly linked to the clinical antitumor activity of MDX-010.
Of note, most responses observed to date have occurred by Week 12, even in patients with initial progression. As such, all patients who receive at least one dose of MDX-010 (BMS-734016) will, whenever possible, first return for the tumor re-staging assessment at Week 12 (and not before). After patients have been treated in the Induction Phase, they will either enter the Maintenance Phase or the Follow-up Phase, depending upon whether or not they meet eligibility criteria to enter the Maintenance Phase.

Row | Compound | adverse effects versus systemically-acting corticosteroids [1] | overall incidence of gastrointestinal perforations and/or colectomies (patients [2]; all patients) | patients in total who experienced gastrointestinal perforation or bleeding requiring colectomy (patients [2]; following treatment with MDX-010, all protocols, to date) [patients] | ocular inflammation (Grade 2 or Grade 3 episcleritis or uveitis) reported (patients [2]; human, in vivo) [patients] | primary adrenal insufficiency noted (patients [2]; human, in vivo) [patients] | ocular inflammation occurring in conjunction with GI symptoms (patients [2]; of the 6 patients with ocular inflammation) [patients] | gastrointestinal perforations or colectomies in patients with breast or prostate cancer (patients [2]; patients with breast or prostate cancer) | gastrointestinal perforation or bleeding requiring colectomy, share of all patients with melanoma enrolled (patients [2]; patients with melanoma in MDX-010 related protocols) [%] | gastrointestinal perforation or bleeding requiring colectomy, share of all patients with renal cell carcinoma enrolled (patients [2]; patients with renal cell carcinoma in MDX-010 related protocols) [%] | cases of hypopituitarism reported (patients [2]; presumably due to immune-mediated hypophysitis, to date) [cases] | time by which most responses observed to date have occurred (patients [3]; even in patients with initial progression) [Week] | patients developing an autoimmune-like adverse event who also experienced a clinical response (patients [3]; in one of the studies) [%]
1 | CCCC1O[C@@H]2C[C@H]3[C@@H]4CCC5=CC(=O)C=C[C@]5(C)[C@H]4[C@@H](O)C[C@]3(C)[C@]2(C(=O)CO)O1 (stereo partly drawn) [Budesonide, budesonide] | fewer adverse effects | – | – | – | – | – | – | – | – | – | – | –
2 | MDX-010: human monoclonal anti-CTLA-4 antibody (Medarex, Inc.), corresponds to monoclonal antibody 10D1; also referred to as ipilimumab | – | less than 2 % of patients | 6 | 6 | 3 | 4 | no reported gastrointestinal perforations or colectomies | 0.6 | 7 | 7 | ≤ 12 | ~45
